Biological target: the molecule itself
Experiment: cryo-EM structure

B1: human XPR1 (natural protein)
chain: MKFAEHLSAHITPEWRKQYIQYEAFKDMLYSAQDQAPSVEVTDEDTVKRYFAKFEEKFFQTCEKELAKINTFYSEKLAEAQRRFATLQNELQSSLDAQKESTGVTTLRQRRKPVFHLSHEERVQHRNIKDLKLAFSEFYLSLILLQNYQNLNFTGFRKILKKHDKILETSRGADWRVAHVEVAPFYTCKKINQLISETEAVVTNELEDGDRQKAMKRLRVPPLGAAQPAPAWTTFRVGLFCGIFIVLNITLVLAAVFKLETDRSIWPLIRIYRGGFLLIEFLFLLGINTYGWRQAGVNHVLIFELNPRSNLSHQHLFEIAGFLGILWCLSLLACFFAPISVIPTYVYPLALYGFMVFFLINPTKTFYYKSRFWLLKLLFRVFTAPFHKVGFADFWLADQLNSLSVILMDLEYMICFYSLELKWDESKGLLPNNSEESGICHKYTYGVRAIVQCIPAWLRFIQCLRRYRDTKRAFPHLVNAGKYSTTFFMVTFAALYSTHKERGHSDTMVFFYLWIVFYIISSCYTLIWDLKMDWGLFDKNAGENTFLREEIVYPQKAYYYCAIIEDVILRFAWTIQISITSTTLLPHSGDIIATVFAPLEVFRRFVWNFFRLENEHLNNCGEFRAVRDISVAPLNADDQTLLEQMMDQDDGVRNRQKNRSWKYNQSISLRRPRLASQSKARDTKVLIEDTDDEANT
For B1, the “stoichiometry N” value was 2.

— paper doi:10.1101/2024.08.19.608714 (bioRxiv, 2024)
